Laboratory results: patent CN117843805A (BEILAI PHARMACEUTICAL CO LTD, dated 2024)

Columns and labels:
[1] = target: T1, Human IL-17A重组蛋白 (IL-17A-His) (human, UniProt Q16552 24-155, biotinylated (NHS-biotin) in the ELISA of paragraph 263); experiment: cell-based or functional assay
T1 sequence: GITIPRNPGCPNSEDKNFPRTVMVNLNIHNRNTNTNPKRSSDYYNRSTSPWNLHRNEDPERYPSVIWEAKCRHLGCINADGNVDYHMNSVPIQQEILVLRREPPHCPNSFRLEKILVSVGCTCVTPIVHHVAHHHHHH

[2] = target: T1, Human IL-17A重组蛋白 (IL-17A-His); experiment: ELISA, antibody coated at 2 ug/mL, Biotin-IL-17A-His titrated from 10 ug/mL, HRP-Streptavidin
[3] = target: T1, Human IL-17A重组蛋白 (IL-17A-His); experiment: BLI (ForteBio OCTET R2), IL-17A-His on the sensor, antibody 50-3.13 nM, 25℃

B1: Ixekizumab (antibody, human IgG4 S228P, kappa, V domains shown)
VH: QVQLVQSGAEVKKPGSSVKVSCKASGYSFTDYHIHWVRQAPGQGLEWMGVINPMYGTTDYNQRFKGRVTITADESTSTAYMELSSLRSEDTAVYYCARYDYFTGTGVYWGQGTLVTVSS
VL: DIVMTQTPLSLSVTPGQPASISCRSSRSLVHSRGNTYLHWYLQKPGQSPQLLIYKVSNRFIGVPDRFSGSGSGTDFTLKISRVEAEDVGVYYCSQSTHLPFTFGQGTKLEIKR
notes: Made in house in 293F cells from synthesised variable regions cloned into hIgG4 and hIgKc vectors; Protein A purified; also called 阳性对照抗体Ixekizumab; 阳性抗体
In the case of B1, the “IC50 of blocking Human IL-17A activation of 293F-IL-17RA-IL-17Rc-ACT1-NFκB-Luc (luciferase activity)” value [1] is reported as 1.36 µg/mL, the EC50 [2] is reported as 10.1 µg/mL and the Kd [3] is reported as 0.391 nM.
